# Source: publication PMC3288176 (ACS Chemical Biology, 2011)
# B1: EcPAPR4cys (enzyme, Escherichia coli)
# chain: MSKLDLNALNELPKVDRILALAETNAELEKLDAEGRVAWALDNLPGEYVLSSSFGIQAAVSLHLVNQIRPDIPVILTDTGYLFPETYRFIDELTDKLKLNLKVYRATESAAWQEARYGKLWEQGVEGIEKCCDINKVEPMNRALKELNAQTWFAGLRREQSGSRANLPVLAIQRGVFKVLPIIDWDNRTIYQYLQKHGLKYHPLWDEGYLSVGCTHCTRKWEPGMAEEETRFFGLKRECGLHEG
# Target: the molecule itself
# Assay: SEC
protein,measurement,value
B1,stoichiometry N,2
